The source of these data is the supplement of paper PMC10567573.

The nature of the series: protein stability index of a GFP-peptide fusion (GPS, HEK-293T) (PSI 1-6); higher = more stable. To be noted: c terminus: a fixed tail appended.

± gives the standard deviation.
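Also: 24-mer peptide tiles fused after GFP, lentivirally expressed, FACS-sorted into six equal bins by GFP/DsRed ratio, decoded by Illumina sequencing, PSI is the read-weighted mean bin number.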

For the sequence SDELSWIIELLEKDGMAFQEALDP [ELF3], the protein stability index came to 2.62 ± 0.34 (treatment: DMSO) and 3.02 ± 0.26 (treatment: MLN4924 1 uM, 8 h).
In turn, FQLNQDKMNFSTLRNIQGLFAPLK [POMP] came in with a protein stability index (treatment: DMSO) of 2.54 ± 0.61 and a protein stability index (treatment: MLN4924 1 uM, 8 h) of 2.3 ± 0.4.
For VAVDYCASENHGCEHECVNADGSY [MATN2], the protein stability index runs as follows: (treatment: DMSO) 5.08 ± 0.13; (treatment: MLN4924 1 uM, 8 h) 5.07 ± 0.054.
QSFISWTGDGWEFKLADPDEVARR [ETS2]: the protein stability index was 3.58 ± 0.1 (treatment: DMSO) and 3.76 ± 0.19 (treatment: MLN4924 1 uM, 8 h).
For SRGLHAWEISWPLEQRGTHAVVGV [SPSB2] the same measures were 2.43 ± 0.4 and 2.17 ± 0.44.
On to KRIKVPDYKDRSVFGVPLTVNVQR [DLC1], for which the protein stability index came to 3.02 ± 0.42 (treatment: DMSO) and 3.09 ± 0.35 (treatment: MLN4924 1 uM, 8 h).
Sequence PPLRLWRSVIEVPAVPEEILKRLL [DLC1] came in with a protein stability index (treatment: DMSO) of 2.26 ± 0.46 and a protein stability index (treatment: MLN4924 1 uM, 8 h) of 2.43 ± 0.18.
In the case of DLLHNVSQNIAAETRAEDPPWFEG [DFFB], the protein stability index reads like this: (treatment: DMSO) 3.753 ± 0.011; (treatment: MLN4924 1 uM, 8 h) 3.85 ± 0.13.
Regarding RSVQNFRFFASSSLHHTSECTQMD [ALDH8A1], the protein stability index stood at 3.14 ± 0.24 (treatment: DMSO) and 3.29 ± 0.33 (treatment: MLN4924 1 uM, 8 h).
Regarding RLLLAESGLSFITFICYVASSASA [CMTM3], the protein stability index (treatment: DMSO) is 2.53 ± 0.94 and the protein stability index (treatment: MLN4924 1 uM, 8 h) stood at 2.43 ± 0.77.
VVWNAQTGEKLLELNGHTQKITAI [WDR41] had a protein stability index (treatment: DMSO) of 2.19 ± 0.2 and a protein stability index (treatment: MLN4924 1 uM, 8 h) of 2.31 ± 0.17.
For VSVIQSIPIFNETGRFSFTLPYPV [HACD3] the same measures were 2.91 ± 0.72 and 2.68 ± 0.76.
VDSFQIILDSLLFFYDCSNNPISE [TENT5C]: the protein stability index is 3.03 ± 0.14 (treatment: DMSO) and 3.14 ± 0.41 (treatment: MLN4924 1 uM, 8 h).
The matching figures for KIQLRLAGQKRKHSEGRVEVYYDG [LOXL2]: 3.09 ± 0.33 and 3.88 ± 0.67.
GGDLMPAPADPTAREGLAAPPRRL [FCHO1] showed a protein stability index (treatment: DMSO) of 5.19 ± 0.33 and a protein stability index (treatment: MLN4924 1 uM, 8 h) of 5.15 ± 0.23.
Take NTNNLTFLMDLPSAGRSMPEASDQ [RNF180]: the protein stability index was found to be 4.28 ± 0.14 (treatment: DMSO) and 4.39 ± 0.2 (treatment: MLN4924 1 uM, 8 h).
Turning to GASSREEPPEEPEQCPVIDSQAPA [SPDEF], the protein stability index by setting is: (treatment: DMSO) 5.69 ± 0.17; (treatment: MLN4924 1 uM, 8 h) 5.52 ± 0.078.
Regarding KLQYQLRNVRERIAKNLVEKGILT [GOLPH3L], the protein stability index was found to be 2.17 ± 0.16 (treatment: DMSO) and 2.28 ± 0.19 (treatment: MLN4924 1 uM, 8 h).
For LKDNPLDPVLAKVAGDCLDEKQCK [LRRC59], the protein stability index came out at 5.13 ± 0.44 (treatment: DMSO) and 5.19 ± 0.27 (treatment: MLN4924 1 uM, 8 h).
As for PPPLTSPSHGSLSHSKAPSGSQMS [NCF4], the protein stability index is 4.83 ± 0.23 (treatment: DMSO) and 4.92 ± 0.35 (treatment: MLN4924 1 uM, 8 h).
The matching figures for TKEGGMLAYYEVCSWKGATKQRIQ [CHIT1]: 2.26 ± 0.53 and 2.91 ± 0.65.
For the sequence IAKAEETHSSLSQELQARLQTVTR [CCDC89], the protein stability index reads like this: (treatment: DMSO) 4.25 ± 0.088; (treatment: MLN4924 1 uM, 8 h) 4.13 ± 0.2.
Regarding TAAPPPPPPSRPSVAVPPPPPNRM [WASL], the protein stability index worked out at 4.82 ± 0.3 (treatment: DMSO) and 4.87 ± 0.2 (treatment: MLN4924 1 uM, 8 h).
The matching figures for NDTAGPELPDPLGGLLDEAMLDEI [NFE2L1]: 5.22 ± 0.41 and 5.6 ± 0.13.
As for RYRGLPAPGPSPADKKRSGKKKIS [WAS], the protein stability index is, setting by setting: (treatment: DMSO) 4.76 ± 0.3; (treatment: MLN4924 1 uM, 8 h) 4.71 ± 0.21.
Consider SERTDTAADGETTATEELEKTQDD [EPB41L3], for which the protein stability index runs as follows: (treatment: DMSO) 5.63 ± 0.2; (treatment: MLN4924 1 uM, 8 h) 5.59 ± 0.21.
The sequence HSQNLAKQQRNEVSFVIHNLPIIA [SEPHS2] registered a protein stability index (treatment: DMSO) of 2.14 ± 0.089 and a protein stability index (treatment: MLN4924 1 uM, 8 h) of 2.25 ± 0.22.
For LKVVHELPACTLCAGPLEDAVTIP [TRIM15] the same measures were 2.76 ± 0.13 and 3.15 ± 0.26.
As for NPPSDFSFQNMNSKRKAETWKKNR [STK38L], the protein stability index worked out at 4.65 ± 0.45 (treatment: DMSO) and 4.42 ± 0.22 (treatment: MLN4924 1 uM, 8 h).
As to YYSCERAKKAMGYQPLVTMDDAME [NSDHL], the protein stability index by setting is: (treatment: DMSO) 3.97 ± 0.34; (treatment: MLN4924 1 uM, 8 h) 3.71 ± 0.45.
Take EVREARDHKEPKEEINKNISDFGR [EHMT1]: the protein stability index reads like this: (treatment: DMSO) 5.18 ± 0.26; (treatment: MLN4924 1 uM, 8 h) 5.28 ± 0.17.
Turning to NKPGCEHECVNMEESYYCRCHRGY [MATN2], the protein stability index is, setting by setting: (treatment: DMSO) 4.3 ± 0.72; (treatment: MLN4924 1 uM, 8 h) 4.24 ± 0.22.
In the case of FTETNNHWPQGPTGPPGPPGPMGP [EMID1], the protein stability index runs as follows: (treatment: DMSO) 2.58 ± 0.28; (treatment: MLN4924 1 uM, 8 h) 3.4 ± 0.5.
On to PEMRWNKGTILKASVDYIRKLQKE [TFE3], for which the protein stability index is, setting by setting: (treatment: DMSO) 2.91 ± 0.24; (treatment: MLN4924 1 uM, 8 h) 2.95 ± 0.17.
For GCSSSGSCSQGSGILHYAHGDSQQ [CRY1] the same measures were 3.75 ± 0.41 and 3.67 ± 0.075.
For FERIMKYERLARILLQEIPIRSIS [FBXO39] the same measures were 2.73 ± 0.39 and 2.35 ± 0.4.
